Numbering of substitutions follows the chain as printed. In names and notes the source's numbering stands.
B1: Humanized 11K2 (antibody, human IgG1, V domains shown)
VH: QVQLVQSGAEVKKPGSSVKVSCKASGLTISDTYMHWVRQAPGQGLEWMGRIDPANGNTKFDPKFQGRVTITADTSTSTAYMELSSLRSEDTAVYYCARGVFGFFDYWGQGTTVTVSS
VL: DIQMTQSPSSLSASVGDRVTITCKATEDIYNRLAWYQQKPGKAPKLLISGATSLETGVPSRFSGSGSGTDYTLTISSLQPEDFATYYCQQFWSAPYTFGGGTKVEIK
notes: Generated as human IgG1 wild type and IgG1 PGLALA with kappa light chain; also called CCL2-0002; humanized 11k2 IgG1
B2: ABN912 (antibody, human IgG1, V domains shown)
VH: EVQLVQSGGGLVQPGGSLRLSCAASGFTFSHYWMSWVRQAPGKGLEWLANIEQDGSEKYYVDSVKGRFTISRDNAKNSLYLQMNSLRAEDTAVYFCARDLEGLHGDGYFDLWGRGTLVTVSS
VL: AIQLTQSPSSLSASVGDRVILTCRASQGVSSALAWYQQKPGKAPKLLIYDASSLESGVPSRFSGSGSGPDFTLTISSLQPEDFATYFCQQFNSYPLTFGGGTKVEIK
notes: Generated as human IgG1 wild type and IgG1 PGLALA with kappa light chain; also called AB912; CCL2-0003
B3: CKLO02 IgG1 (bispecific antibody)
heavy 1: not shown
heavy 2: not shown
light 1: QVQLVQSGAEVKKPGSSVKVSCKASGLTISHTYMHWVRQAPGQGLEWMGRIDPDNHNTKFDPKFQGRVTITADTSTSTAYMELSSLRSEDTAVYYCARGVFGFFEHWGQGTTVTVSSASVAAPSVFIFPPSDEQLKSGTASVVCLLNNFYPREAKVQWKVDNALQSGNSQESVTEQDSKDSTYSLSSTLTLSKADYEKHKVYACEVTHQGLSSPVTKSFNRGEC
light 2: EIVLTQSPATLSLSPGERATLSCRASQHVSDAYLAWYQQKPGQAPRLLIYDASDRAEGVPARFSGSGSGTDFTLTISSLEPEDFAVYYCHQYIHLHSFTFGQGTKVEIKRTVAAPSVFIFPPSDRKLKSGTASVVCLLNNFYPREAKVQWKVDNALQSGNSQESVTEQDSKDSTYSLSSTLTLSKADYEKHKVYACEVTHQGLSSPVTKSFNRGEC
B4: CKLO2-SG1095 (bispecific antibody)
heavy 1: DIQMTQSPSSLSASVGDRVTITCKAFEDIYNRRAWYQQKPGKAPKLLIHGATSLEHGVPSRFSGSGSGTDYTLTISSLQPEDFATYYCQQFWSAPYTFGGGTKVEIKSSASTKGPSVFPLAPSSKSTSGGTAALGCLVKDYFPEPVTVSWNSGALTSGVHTFPAVLQSSGLYSLSSVVTVPSSSLGTQTYICNVNHKPSNTKVDKKVEPKSCDKTHTCPPCPAPELWNGPSVFLFPPKPKDTLMISRTPEVTCVVVDVSDEDPEVKFNWYVDGVEVHNAKTKPREELYNSTYRVVSVLTVLHRDWLNGKEYKCKVSNTALPKPIEKTISKAKGQRREPQVYTLPPCRDELTKNQVSLWCLVKGFYPSDIAVEWESNGQPENNYKTTPPVLDSDGSFFLYSKLTVDKSRWQQGNVFSCSVMHEALHAHYTRKELSLSP
heavy 2: not shown
light 1: B3 light 1
light 2: B3 light 2
B5: CKLO2-GG01 (bispecific antibody)
heavy 1: B4 heavy 1 with L226Y, W227L, N228G, P230D, T242V, V256I, D260H, L287Q, T299P, T318K
heavy 2: not shown
light 1: B3 light 1
light 2: B3 light 2
B6: CKLO2-GG03/GG04 (bispecific antibody)
heavy 1: DIQMTQSPSSLSASVGDRVTITCKAFEDIYNRRAWYQQKPGKAPKLLIHGATSLEHGVPSRFSGSGSGTDYTLTISSLQPEDFATYYCQQFWSAPYTFGGGTKVEIKSSASTKGPSVFPLAPSSKSTSGGTAALGCLVKDYFPEPVTVSWNSGALTSGVHTFPAVLQSSGLYSLSSVVTVPSSSLGTQTYICNVNHKPSNTKVDKKVEPKSCDKTHTCPPCPAPEYLGGDSVFLFPPKPKDVLMISRTPEVTCVVIDVSHEDPEVKFNWYVDGVEVHNAKTKPREEQYNSTYRVVSVLPVLHRDWLNGKEYKCKVSNKALPKPIEKTISKAKGQRREPQVYTLPPCREEMTKNQVSLWCLVKGFYPSDIAVEWESNGQPENNYKTTPPVLDSDGSFFLYSKLTVDKSRWQQGNVFSCSVMHEALHAHYTRKELSLSP
heavy 2: not shown
light 1: B3 light 1
light 2: B3 light 2
B7: CKLO2-GG02 (bispecific antibody)
heavy 1: B6 heavy 1 with E348D, M350L, M420L, Y428T
heavy 2: not shown
light 1: B3 light 1
light 2: B3 light 2
B8: murine 11K2 (antibody, V domains shown)
VH: EVQLQQSGAELVKAGASVKLSCPASGLNIKDTYMHWVKQRPEQGLEWIGRIDPANGNTKFDPKFQGKATITADTSSNTAYLQLSSLTSEDTAVYYCARGVFGFFDYWGQGTTLTVSS
VL: DIQMTQSSSSFSVSLGDRVTITCKATEDIYNRLAWYQQKPGSAPRLLISGATSLETGVPSRFSGSGSGKDYTLSITSLQTEDVATYYCQQFWSAPYTFGGGTKLEIK
notes: also called 11K2m; X-0048
B9: 1A5 (antibody, V domains shown)
VH: QEQLVESGGDLVKPEGSLTLTCTASGFSFSTSYWMCWVRQAPGKGLELIACISSSIGVTYYASWAEGRFTISKTSSTTVTLQMTSLTVADTATYFCARTTDDNWNVGFNLWGPGTLVTVSS
VL: AYDMTQTPASVEVGVGGTVTIKCQASQSIGNRYLSWYQQKPGQPPKLLIYGTSTLASGVSSRFKGSGSGTQFTLTISGVESADSATYYCQQGATISYLDNAFGGGTEVVVK
notes: Generated as IgG1 wild type and IgG1 PGLALA with kappa light chain; also called CCL2-0009
B10: 1G9 (antibody, V domains shown)
VH: QSLEESGGDLVKPGASLTLTCKASGIDFSLYSYMCWVRQAPGKGLEWIACVDAGASGSTYYASWAKGRFTISKTSSTTVTLQMTSLTAADTATYFCARGILYYTWPYPAGAIDAFDSWGPGTLVTVSS
VL: AYDMTQTPASVSEPVGGTVTIKCQASESISNYLSWYQQKPGQPPKLLIYKASTLASGVPSRFKGSGSGTEYTVTISGVQSDDAATYYCQQSYSSSNVFNTFGGGTEVVVK
notes: Generated as IgG1 wild type and IgG1 PGLALA with kappa light chain; also called CCL2-0010
B11: 2F6 (antibody, V domains shown)
VH: QSLEESGGGLVQPEGSLTLTCTASGFSFNNNYYMCWVRQAPGKGLEWIGCISTDDSNTHYASWAQGRFTISKASSTALTLQVAGLTVADMATYFCARDAHFTSYGYGFDLWGPGTLVTVSS
VL: DIVMTQTPASVSAAVGGTVSINCRASEDIENLVAWYQQKPGQPPKLLIYQASKLASGVPSRFKGSGSGAEFTLTIGDLESADAATYYCQGDYGSGWIMYSFGGGTDLVVK
notes: Generated as IgG1 wild type and IgG1 PGLALA with kappa light chain; also called CCL2-0014
B12: 1A4 (antibody, V domains shown)
VH: QSLEESGGDLVKPGASLTLTCTASELDFYWICWVRQAPGKGLEWIACIGAGSSGSTYYASWAKGRFTVSKTSSTTVTLQMTSLTAADTATYFCARTGTEFTYYSLWGPGTLVTVSS
VL: ALVMTQTPSSVSAAVGGTVTINCQASQSVYNNNMAWYQQKPGQPPKLLIYTASSLASGVPSHFRGSGSGTQFTLTISDLESDDAATYYCAGYKSYSNDEYGFGGGTEVVVK
notes: also called CCL2-0008
B13: 1A4//2F6-PGLALA (bispecific antibody, V domains shown)
VH 1: B12 VH
VL 1: B12 VL
VH 2: B11 VH
VL 2: B11 VL
notes: CrossMab: 1A4 arm VH/VL crossed, 2F6 arm non-crossed with CH1/CL charge modifications, knobs-into-holes, human IgG1 with L234A, L235A, P329G; also called CCL2-0054; P1AA3459
B14: 1A4//2F6-WT IgG1 (bispecific antibody, V domains shown)
VH 1: B12 VH
VL 1: B12 VL
VH 2: B11 VH
VL 2: B11 VL
notes: CrossMab: 1A4 arm VH/VL crossed, 2F6 arm non-crossed with CH1/CL charge modifications, knobs-into-holes, human IgG1 wild type Fc; also called CCL2-0057; P1AA3400

Target: T1, human CCL2 (MCP1) - wild type (wt) (human, UniProt P13500 24-99)
T1 construct: Entry is without signal peptide; Made in-house or bought from R&D Systems (279-MC), depending on the assay; monomer-dimer equilibrium; also called wt human CCL2; hCCL2
Assay: SPR Biacore T200, 25 C, pH 7.1, antibody captured via anti-human Fc, 1:1 model

Binder | t½-diss.
B1 | 3.58 h
B2 | 0.333 h

Target: T1, human CCL2 (MCP1) - wild type (wt)
Assay: cell-based or functional assay

Binder | IC50, inhibition of THP-1 migration towards recombinant huCCL2
B1 | 0.7 µg/mL
B3 | 0.2 µg/mL
B4 | 0.2 µg/mL
B5 | 0.2 µg/mL
B6 | 0.3 µg/mL
B7 | 0.2 µg/mL

Target: T1, human CCL2 (MCP1) - wild type (wt)
Assay: SPR Biacore T200, 25 C, pH 6.7, antibody captured via anti-human Fc, 1:1 model

Binder | t½-diss.
B1 | 4.87 h
B2 | 0.133 h

Target: T1, human CCL2 (MCP1) - wild type (wt)
Assay: SPR Biacore T200, 25 C, pH 7.4, antibody captured via anti-human Fc, 1:1 model

Binder | t½-diss.
B1 | 2.72 h
B2 | 0.55 h

Target: T1, human CCL2 (MCP1) - wild type (wt)
Assay: SPR Biacore T200, 25 C, pH 8.3, antibody captured via anti-human Fc, 1:1 model

Binder | t½-diss.
B1 | 19.2 h
B2 | 0.583 h

Target: T2, human CCL2 (MCP1) - P8A variant (human, UniProt P13500 24-99)
T2 construct: Entry is without signal peptide; P8A prevents dimer formation (pure monomer); made in-house; also called monomeric human CCL2; monomeric CCL2
Assay: SPR Biacore T200, 37 C, antibody captured, CCL2 as analyte, 1:1 model

Binder | T½
B1 | 1.93 h
B2 | 0.417 h
B8 | 8.63 h
B9 | 2.28 h
B10 | 3.63 h
B11 | 0.783 h
B12 | 2.9 h

Target: T1, human CCL2 (MCP1) - wild type (wt)
Assay: as above

Binder | T½
B1 | 1.97 h
B2 | 0.55 h
B8 | 0.317 h
B9 | 2.67 h
B10 | 2.95 h
B11 | 0.867 h
B12 | 1.67 h

Target: T1, human CCL2 (MCP1) - wild type (wt)
Assay: SPR Biacore T200, 25 C, pH 6.3, antibody captured via anti-human Fc, 1:1 model

Binder | t½-diss.
B1 | 19.2 h
B2 | 0.05 h

Target: T1, human CCL2 (MCP1) - wild type (wt)
Assay: SPR Biacore T200, 25 C, pH 5.5, antibody captured via anti-human Fc, 1:1 model

Binder | t½-diss.
B1 | 1.97 h
B2 | 0.0005 h

Target: T1, human CCL2 (MCP1) - wild type (wt)
Assay: SPR Biacore T200, 25 C, pH 5.9, antibody captured via anti-human Fc, 1:1 model

Binder | t½-diss.
B1 | 4.78 h
B2 | 0.0167 h

Target: T1, human CCL2 (MCP1) - wild type (wt)
Assay: SPR Biacore T200, 25 C, pH 7.9, antibody captured via anti-human Fc, 1:1 model

Binder | t½-diss.
B1 | 2.75 h
B2 | 0.417 h

Target: T1, human CCL2 (MCP1) - wild type (wt)
Assay: SPR, 25 C, pH 7.4, antibody captured via anti-human Fc on C1 chip, wt CCL2 as analyte, 1:1 model

Binder | binding result
B13 | binds
B14 | binds
